Experimental data as given in the supplement of paper PMC9112550, “Optimization of the antimicrobial peptide Bac7 by deep mutational scanning” (BMC Biology, 2022).

Each sequence was assayed on Escherichia coli TOP10 (assay: shrunken log2 fold change of peptide-encoding DNA abundance (4.5 h post-induction vs induction); higher = less antimicrobial activity (less host growth inhibition)). Conditions: time post-induction: 4.5 h; library: site-saturation at positions 5, 18, 19, 20.
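Also: peptides expressed intracellularly from a pBAD plasmid library in pooled LB shake-flask culture, induced with 0.3% L-arabinose, DNA abundance read by NGS, three biological replicates, DESeq2 with apeglm shrinkage.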

Sequence	shrunken log2 fold change
RRIRRRPPRLPRPRPRPHAPPRP	0.353
RRIRRRPPRLPRPRPRPHCQPRP	0.17
RRIRRRPPRLPRPRPRPHCSPRP	-0.0453
RRIRRRPPRLPRPRPRPHCVPRP	-0.0665
RRIRRRPPRLPRPRPRPHDVPRP	0.0619
RRIRRRPPRLPRPRPRPHEDPRP	0.0653
RRIRRRPPRLPRPRPRPHEIPRP	-0.0745
RRIRRRPPRLPRPRPRPHENPRP	-0.019
RRIRRRPPRLPRPRPRPHGEPRP	0.0136
RRIRRRPPRLPRPRPRPHHPPRP	-0.0853
RRIRRRPPRLPRPRPRPHHQPRP	-0.086
RRIRRRPPRLPRPRPRPHIFPRP	-0.019
RRIRRRPPRLPRPRPRPHLLPRP	-0.0838
RRIRRRPPRLPRPRPRPHLRPRP	0.298
RRIRRRPPRLPRPRPRPHLSPRP	0.112
RRIRRRPPRLPRPRPRPHMWPRP	-0.0704
RRIRRRPPRLPRPRPRPHPKPRP	0.474
RRIRRRPPRLPRPRPRPHQNPRP	0.769
RRIRRRPPRLPRPRPRPHRWPRP	0.409
RRIRRRPPRLPRPRPRPHSDPRP	-0.0198
RRIRRRPPRLPRPRPRPHSGPRP	0.0307
RRIRRRPPRLPRPRPRPHSPPRP	0.252
RRIRRRPPRLPRPRPRPHTDPRP	-0.215
RRIRRRPPRLPRPRPRPHTIPRP	0.141
RRIRRRPPRLPRPRPRPHVVPRP	0.0538

Sequence	shrunken log2 fold change
RRIRRRPPRLPRPRPRPHWDPRP	-0.0203
RRIRRRPPRLPRPRPRPHWFPRP	-0.198
RRIRRRPPRLPRPRPRPHWQPRP	0.28
RRIRRRPPRLPRPRPRPHYCPRP	-0.356
RRIRRRPPRLPRPRPRPIAMPRP	0.0579
RRIRRRPPRLPRPRPRPIFLPRP	0.0228
RRIRRRPPRLPRPRPRPIFTPRP	0.2
RRIRRRPPRLPRPRPRPIGFPRP	0.0265
RRIRRRPPRLPRPRPRPIHIPRP	-0.579
RRIRRRPPRLPRPRPRPIHWPRP	-0.0227
RRIRRRPPRLPRPRPRPIIRPRP	0.0674
RRIRRRPPRLPRPRPRPIKVPRP	-0.186
RRIRRRPPRLPRPRPRPIKWPRP	0.0148
RRIRRRPPRLPRPRPRPILFPRP	-0.026
RRIRRRPPRLPRPRPRPIMDPRP	0.01
RRIRRRPPRLPRPRPRPIMHPRP	-0.094
RRIRRRPPRLPRPRPRPINRPRP	0.0995
RRIRRRPPRLPRPRPRPIPHPRP	0.822
RRIRRRPPRLPRPRPRPIPWPRP	0.312
RRIRRRPPRLPRPRPRPIQCPRP	0.00305
RRIRRRPPRLPRPRPRPIQRPRP	0.168
RRIRRRPPRLPRPRPRPIRCPRP	0.334
RRIRRRPPRLPRPRPRPIRKPRP	-0.0416
RRIRRRPPRLPRPRPRPISIPRP	-0.0402
RRIRRRPPRLPRPRPRPITSPRP	-0.00199

Sequence	shrunken log2 fold change
RRIRRRPPRLPRPRPRPIVFPRP	0.00406
RRIRRRPPRLPRPRPRPIVVPRP	0.115
RRIRRRPPRLPRPRPRPIWKPRP	-0.184
RRIRRRPPRLPRPRPRPIWYPRP	0.00744
RRIRRRPPRLPRPRPRPKCTPRP	-0.373
RRIRRRPPRLPRPRPRPKDGPRP	0.378
RRIRRRPPRLPRPRPRPKEMPRP	0.0252
RRIRRRPPRLPRPRPRPKEWPRP	0.044
RRIRRRPPRLPRPRPRPKFWPRP	0.278
RRIRRRPPRLPRPRPRPKHIPRP	0.0894
RRIRRRPPRLPRPRPRPKLFPRP	0.37
RRIRRRPPRLPRPRPRPKLIPRP	-0.395
RRIRRRPPRLPRPRPRPKNCPRP	0.0654
RRIRRRPPRLPRPRPRPKNTPRP	-0.0507
RRIRRRPPRLPRPRPRPKPAPRP	0.347
RRIRRRPPRLPRPRPRPKQFPRP	-0.00581
RRIRRRPPRLPRPRPRPKRAPRP	0.52
RRIRRRPPRLPRPRPRPKTHPRP	0.126
RRIRRRPPRLPRPRPRPKVEPRP	-0.0016
RRIRRRPPRLPRPRPRPLAKPRP	0.571
RRIRRRPPRLPRPRPRPLCPPRP	1.21
RRIRRRPPRLPRPRPRPLDCPRP	0.107
RRIRRRPPRLPRPRPRPLDFPRP	0.184
RRIRRRPPRLPRPRPRPLDYPRP	-0.324
RRIRRRPPRLPRPRPRPLEKPRP	0.477
